{
  "source": "patent US20020142009A1",
  "key": {"[1]": {"target": "rhC5a (human (printed as rhC5a)) (UniProt P01031)", "experiment": "cell-based or functional assay"}, "[2]": {"target": "T1, rhC5a, P01031", "T1 chain": "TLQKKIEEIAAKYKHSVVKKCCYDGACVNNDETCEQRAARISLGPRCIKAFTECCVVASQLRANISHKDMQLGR"}},
  "data": [
    {"molecule": "SCPA49, streptococcal C5a peptidase of group A Streptococcus serotype M49 strain CS101, as made by the bacteria (from UniProt P58099 2-1181) (enzyme)", "values": [
      {"measurement": "Percent inhibition of C5a induced PMN adherence", "setting": "[1]", "value": 54.5, "unit": "%"}
    ]},
    {"molecule": "SCPA6, streptococcal C5a peptidase of group A Streptococcus serotype M6 strain UAB200, as made by the bacteria (enzyme)", "values": [
      {"measurement": "Percent inhibition of C5a induced PMN adherence", "setting": "[1]", "value": 58.8, "unit": "%"}
    ]},
    {"molecule": "recombinant wild-type SCPA49 (Asn32 through His1139) (protein) NTVTEDTPATEQAVETPQPTTVSEEVPSSKETKTPQTPDDAEETVADDANDLAPQAPAKTPDTSATSKATIRDLNDPSQVKTLQEKAGKGAGTVVAVIDAGFDKNHEAWRLTDKAKARYQSKEDLEKAKKEHGITYGEWVNDKVAYYHDYSKDGKTAVDQEHGTHVSGILSGNAPSETKEPYRLEGAMPEAQLLLMRVEIVNGLADYARNYAQAIRDAVNLGAKVINMSFGNAALAYANLPDETKKPFVYAKSKGVRIVTTAGNDSSFGGKTRLPLADHPDYGVVGTPAAADSTLTVASYSPDNQLTETAMVKTDDQQDKEMPVLSTNRFEPNKAYDYAYANRGMKEDDFKDVKGKIALIERSDIDFTDKIANAKKAGAVGVLIYDNQDKGFPIELPNVDQMPAAFISRKDGLLLKDNSQKTITFNATPKVLPTASGTKLSRFSSWGLTADGNIKPDIAAPGQDILSSAANNKYAKLSGTSMSAPLVAVIMGLLQKQYETQYPDMTQSERLDLAKKVLMSSATALYDEDEKAYFSPRQQGAGAVDAKKASEATMYVTDKDNTSSKVHLNNVSDKFEVTVTVHNKSDKPHELYYQATVQTDKVDGKHFALAPKALIETSWQKITIPANSSKQVTIPIDISQFSKDLLAQMKNGYFLEGFVRIKQDPTKEELMSIPYIGFRGDFGNLSALEKPLYDSKDGSSYYHEEISDAKDQLDGDGLQFYALKNDFTALTTESNPWTIINVVKEGVENIEDIESSEITETIFAGTFAKQDDDRHYYIHRHANGKPYAAISPNGDGNRDYVQFHGTFLRNAKNLVAEVLDKEGNVVWTSEVTEQVVKNYNNDLASTLGSTRFEISRWDGKDKDAKVVANGTYTYRVRYTPISSGAKEQHTDFDVIVDNTTPEVATSATFSTEDRRLTLASKPQTSQPVYRERIAYTYMDEDLPTTEYISPNEDGTFTLPEEAETMEGATVPLKMSDFTYVVEDMAGNITYTPVTKLLEGHSNKPEQDGSDQAPDKKPETKPEQDGSDQAPDKKPETKPGQDGSGQTPDKKPETKPEKDSSGQTPGKTPQKGQPSRTLEKRSSKRALATKASTRDQLPTTNDKDTNRLH", "values": [
      {"measurement": "Activity (U/mg*10^-3), PMN adherence assay", "setting": "[2]", "value": 170, "unit": "U/mg·10^-3"}
    ]},
    {"molecule": "SCPA49N295A (protein) NTVTEDTPATEQAVETPQPTTVSEEVPSSKETKTPQTPDDAEETVADDANDLAPQAPAKTPDTSATSKATIRDLNDPSQVKTLQEKAGKGAGTVVAVIDAGFDKNHEAWRLTDKAKARYQSKEDLEKAKKEHGITYGEWVNDKVAYYHDYSKDGKTAVDQEHGTHVSGILSGNAPSETKEPYRLEGAMPEAQLLLMRVEIVNGLADYARNYAQAIRDAVNLGAKVINMSFGNAALAYANLPDETKKPFVYAKSKGVRIVTTAGADSSFGGKTRLPLADHPDYGVVGTPAAADSTLTVASYSPDNQLTETAMVKTDDQQDKEMPVLSTNRFEPNKAYDYAYANRGMKEDDFKDVKGKIALIERSDIDFTDKIANAKKAGAVGVLIYDNQDKGFPIELPNVDQMPAAFISRKDGLLLKDNSQKTITFNATPKVLPTASGTKLSRFSSWGLTADGNIKPDIAAPGQDILSSAANNKYAKLSGTSMSAPLVAVIMGLLQKQYETQYPDMTQSERLDLAKKVLMSSATALYDEDEKAYFSPRQQGAGAVDAKKASEATMYVTDKDNTSSKVHLNNVSDKFEVTVTVHNKSDKPHELYYQATVQTDKVDGKHFALAPKALIETSWQKITIPANSSKQVTIPIDISQFSKDLLAQMKNGYFLEGFVRIKQDPTKEELMSIPYIGFRGDFGNLSALEKPLYDSKDGSSYYHEEISDAKDQLDGDGLQFYALKNDFTALTTESNPWTIINVVKEGVENIEDIESSEITETIFAGTFAKQDDDRHYYIHRHANGKPYAAISPNGDGNRDYVQFHGTFLRNAKNLVAEVLDKEGNVVWTSEVTEQVVKNYNNDLASTLGSTRFEISRWDGKDKDAKVVANGTYTYRVRYTPISSGAKEQHTDFDVIVDNTTPEVATSATFSTEDRRLTLASKPQTSQPVYRERIAYTYMDEDLPTTEYISPNEDGTFTLPEEAETMEGATVPLKMSDFTYVVEDMAGNITYTPVTKLLEGHSNKPEQDGSDQAPDKKPETKPEQDGSDQAPDKKPETKPGQDGSGQTPDKKPETKPEKDSSGQTPGKTPQKGQPSRTLEKRSSKRALATKASTRDQLPTTNDKDTNRLH", "values": [
      {"measurement": "Activity (U/mg*10^-3), PMN adherence assay", "setting": "[2]", "value": "< 20", "unit": "U/mg·10^-3"}
    ]},
    {"molecule": "SCPA49D130A (protein) NTVTEDTPATEQAVETPQPTTVSEEVPSSKETKTPQTPDDAEETVADDANDLAPQAPAKTPDTSATSKATIRDLNDPSQVKTLQEKAGKGAGTVVAVIAAGFDKNHEAWRLTDKAKARYQSKEDLEKAKKEHGITYGEWVNDKVAYYHDYSKDGKTAVDQEHGTHVSGILSGNAPSETKEPYRLEGAMPEAQLLLMRVEIVNGLADYARNYAQAIRDAVNLGAKVINMSFGNAALAYANLPDETKKPFVYAKSKGVRIVTTAGNDSSFGGKTRLPLADHPDYGVVGTPAAADSTLTVASYSPDNQLTETAMVKTDDQQDKEMPVLSTNRFEPNKAYDYAYANRGMKEDDFKDVKGKIALIERSDIDFTDKIANAKKAGAVGVLIYDNQDKGFPIELPNVDQMPAAFISRKDGLLLKDNSQKTITFNATPKVLPTASGTKLSRFSSWGLTADGNIKPDIAAPGQDILSSAANNKYAKLSGTSMSAPLVAVIMGLLQKQYETQYPDMTQSERLDLAKKVLMSSATALYDEDEKAYFSPRQQGAGAVDAKKASEATMYVTDKDNTSSKVHLNNVSDKFEVTVTVHNKSDKPHELYYQATVQTDKVDGKHFALAPKALIETSWQKITIPANSSKQVTIPIDISQFSKDLLAQMKNGYFLEGFVRIKQDPTKEELMSIPYIGFRGDFGNLSALEKPLYDSKDGSSYYHEEISDAKDQLDGDGLQFYALKNDFTALTTESNPWTIINVVKEGVENIEDIESSEITETIFAGTFAKQDDDRHYYIHRHANGKPYAAISPNGDGNRDYVQFHGTFLRNAKNLVAEVLDKEGNVVWTSEVTEQVVKNYNNDLASTLGSTRFEISRWDGKDKDAKVVANGTYTYRVRYTPISSGAKEQHTDFDVIVDNTTPEVATSATFSTEDRRLTLASKPQTSQPVYRERIAYTYMDEDLPTTEYISPNEDGTFTLPEEAETMEGATVPLKMSDFTYVVEDMAGNITYTPVTKLLEGHSNKPEQDGSDQAPDKKPETKPEQDGSDQAPDKKPETKPGQDGSGQTPDKKPETKPEKDSSGQTPGKTPQKGQPSRTLEKRSSKRALATKASTRDQLPTTNDKDTNRLH", "values": [
      {"measurement": "Activity (U/mg*10^-3), PMN adherence assay", "setting": "[2]", "value": "< 20", "unit": "U/mg·10^-3"}
    ]},
    {"molecule": "SCPA49S512A (protein) NTVTEDTPATEQAVETPQPTTVSEEVPSSKETKTPQTPDDAEETVADDANDLAPQAPAKTPDTSATSKATIRDLNDPSQVKTLQEKAGKGAGTVVAVIDAGFDKNHEAWRLTDKAKARYQSKEDLEKAKKEHGITYGEWVNDKVAYYHDYSKDGKTAVDQEHGTHVSGILSGNAPSETKEPYRLEGAMPEAQLLLMRVEIVNGLADYARNYAQAIRDAVNLGAKVINMSFGNAALAYANLPDETKKPFVYAKSKGVRIVTTAGNDSSFGGKTRLPLADHPDYGVVGTPAAADSTLTVASYSPDNQLTETAMVKTDDQQDKEMPVLSTNRFEPNKAYDYAYANRGMKEDDFKDVKGKIALIERSDIDFTDKIANAKKAGAVGVLIYDNQDKGFPIELPNVDQMPAAFISRKDGLLLKDNSQKTITFNATPKVLPTASGTKLSRFSSWGLTADGNIKPDIAAPGQDILSSAANNKYAKLSGTAMSAPLVAVIMGLLQKQYETQYPDMTQSERLDLAKKVLMSSATALYDEDEKAYFSPRQQGAGAVDAKKASEATMYVTDKDNTSSKVHLNNVSDKFEVTVTVHNKSDKPHELYYQATVQTDKVDGKHFALAPKALIETSWQKITIPANSSKQVTIPIDISQFSKDLLAQMKNGYFLEGFVRIKQDPTKEELMSIPYIGFRGDFGNLSALEKPLYDSKDGSSYYHEEISDAKDQLDGDGLQFYALKNDFTALTTESNPWTIINVVKEGVENIEDIESSEITETIFAGTFAKQDDDRHYYIHRHANGKPYAAISPNGDGNRDYVQFHGTFLRNAKNLVAEVLDKEGNVVWTSEVTEQVVKNYNNDLASTLGSTRFEISRWDGKDKDAKVVANGTYTYRVRYTPISSGAKEQHTDFDVIVDNTTPEVATSATFSTEDRRLTLASKPQTSQPVYRERIAYTYMDEDLPTTEYISPNEDGTFTLPEEAETMEGATVPLKMSDFTYVVEDMAGNITYTPVTKLLEGHSNKPEQDGSDQAPDKKPETKPEQDGSDQAPDKKPETKPGQDGSGQTPDKKPETKPEKDSSGQTPGKTPQKGQPSRTLEKRSSKRALATKASTRDQLPTTNDKDTNRLH", "values": [
      {"measurement": "Activity (U/mg*10^-3), PMN adherence assay", "setting": "[2]", "value": "< 20", "unit": "U/mg·10^-3"}
    ]},
    {"molecule": "ΔSCPA49 (truncated recombinant SCPA49, Thr63 through His1031) (protein) TKTPQTPDDAEETVADDANDLAPQAPAKTPDTSATSKATIRDLNDPSQVKTLQEKAGKGAGTVVAVIDAGFDKNHEAWRLTDKAKARYQSKEDLEKAKKEHGITYGEWVNDKVAYYHDYSKDGKTAVDQEHGTHVSGILSGNAPSETKEPYRLEGAMPEAQLLLMRVEIVNGLADYARNYAQAIRDAVNLGAKVINMSFGNAALAYANLPDETKKPFVYAKSKGVRIVTTAGNDSSFGGKTRLPLADHPDYGVVGTPAAADSTLTVASYSPDNQLTETAMVKTDDQQDKEMPVLSTNRFEPNKAYDYAYANRGMKEDDFKDVKGKIALIERSDIDFTDKIANAKKAGAVGVLIYDNQDKGFPIELPNVDQMPAAFISRKDGLLLKDNSQKTITFNATPKVLPTASGTKLSRFSSWGLTADGNIKPDIAAPGQDILSSAANNKYAKLSGTSMSAPLVAVIMGLLQKQYETQYPDMTQSERLDLAKKVLMSSATALYDEDEKAYFSPRQQGAGAVDAKKASEATMYVTDKDNTSSKVHLNNVSDKFEVTVTVHNKSDKPHELYYQATVQTDKVDGKHFALAPKALIETSWQKITIPANSSKQVTIPIDISQFSKDLLAQMKNGYFLEGFVRIKQDPTKEELMSIPYIGFRGDFGNLSALEKPLYDSKDGSSYYHEEISDAKDQLDGDGLQFYALKNDFTALTTESNPWTIINVVKEGVENIEDIESSEITETIFAGTFAKQDDDRHYYIHRHANGKPYAAISPNGDGNRDYVQFHGTFLRNAKNLVAEVLDKEGNVVWTSEVTEQVVKNYNNDLASTLGSTRFEISRWDGKDKDAKVVANGTYTYRVRYTPISSGAKEQHTDFDVIVDNTTPEVATSATFSTEDRRLTLASKPQTSQPVYRERIAYTYMDEDLPTTEYISPNEDGTFTLPEEAETMEGATVPLKMSDFTYVVEDMAGNITYTPVTKLLEGH", "values": [
      {"measurement": "peptidase activity, PMN adherence assay", "setting": "[2]", "value": "lacked peptidase activity"}
    ]}
  ]
}
